Test results as given in patent publication US20060239990A1 (published 2006).

T1: IκB-α, endogenous in 293 cells (human, UniProt P25963 1-317)
T1 construct: also called endogenous IκB-α
T1 sequence (looked up): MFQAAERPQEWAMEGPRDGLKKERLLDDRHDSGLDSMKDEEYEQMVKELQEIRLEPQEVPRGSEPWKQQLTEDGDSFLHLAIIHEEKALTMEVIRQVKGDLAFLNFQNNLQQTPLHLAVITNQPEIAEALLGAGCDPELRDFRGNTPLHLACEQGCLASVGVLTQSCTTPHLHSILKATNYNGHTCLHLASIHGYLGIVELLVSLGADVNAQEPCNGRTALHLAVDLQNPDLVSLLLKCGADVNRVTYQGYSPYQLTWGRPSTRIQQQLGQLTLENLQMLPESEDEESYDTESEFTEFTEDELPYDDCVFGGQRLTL


What was measured:
[1] = biological target: T2, RelA (p65) in 293 cells (UniProt Q04206 1-551); assay: immunoprecipitation with anti-HA antibody from transfected 293 cells, immunoblot for p65
T2 construct: also called endogenous p65
Description: (§1) To map IκB-α domains that interacted with PRMT2, 293 cells were transfected with HA-tagged PRMT2 (FIG. 5C) and His-tagged derivatives of the indicated IκB-α expression vectors (FIG. 5B) as indicated. 24 hrs later cells were harvested in cell lysis buffer and cell lysates were immunoprecipitated with agarose-conjugated antibody to His (IκB-α) (FIG. 5D, lanes 1-4) and HA (PRMT2) (FIG. 5D, lanes 5-6), fractionated by SDS-PAGE and analyzed by immunoblotting with antibody to HA to detect PRMT2 ((FIG. 5D lanes 1, 2 and lanes 5, 6) and His (FIG. 5D, lanes 3, 4). To map the region of PRMT2 that interacted with endogenous IκB-α and p65, 293 cells were transfected with HA-tagged PRMT2 (FIG. 5C) derivatives as indicated. Cells were harvested 24 hrs after transfection in cell lysis buffer, immunoprecipitated with agarose-conjugated antibody to HA to detect PRMT2 and derivatives (FIG. 5E, lanes 7-15), fractionated by SDS-PAGE and analyzed by immunoblotting with antibody to p65 (FIG. 5E, lanes 7-9), IκB-α (FIG. 5E, lanes 10-12) or HA (FIG. 5E, lanes 13-15).
A polyclonal antibody to recombinant PRMT2 was used to examine the association between endogenous PRMT2 and IκB-α in vivo. […] The domain of IκB-α required for association with PRMT2 was mapped using in vivo immunoprecipitation assays where HA-tagged PRMT2 was coexpressed with truncation mutants of His-tagged IκB-α (FIG. 5B) in 293 cells. The ankyrin domain was both necessary and sufficient for this association (FIG. 5D, lanes 1 and 2). The domain of PRMT2 that interacted with endogenous IκB-α was mapped by immunoprecipitation following expression HA-tagged PRMT2 truncation mutants (FIG. 5C). […] When the ratios of PRMT2 or PRMT2-A binding to IκB-α were compared, both interacted with IκB-α with similar affinity.

[2] = biological target: T1, IκB-α, endogenous in 293 cells; assay: immunoprecipitation with anti-HA antibody from transfected 293 cells, immunoblot for IκB-α
Description: as §1
(§2) A polyclonal antibody to recombinant PRMT2 was used to examine the association between endogenous PRMT2 and IκB-α in vivo. […] The domain of IκB-α required for association with PRMT2 was mapped using in vivo immunoprecipitation assays where HA-tagged PRMT2 was coexpressed with truncation mutants of His-tagged IκB-α (FIG. 5B) in 293 cells. […]

[3] = biological target: T1, IκB-α, endogenous in 293 cells; assay: immunoprecipitation with anti-HA antibody from transfected 293 cells, immunoblot for endogenous IκB-α
Description: as §1, §2

T2 sequence (Q04206 whole entry): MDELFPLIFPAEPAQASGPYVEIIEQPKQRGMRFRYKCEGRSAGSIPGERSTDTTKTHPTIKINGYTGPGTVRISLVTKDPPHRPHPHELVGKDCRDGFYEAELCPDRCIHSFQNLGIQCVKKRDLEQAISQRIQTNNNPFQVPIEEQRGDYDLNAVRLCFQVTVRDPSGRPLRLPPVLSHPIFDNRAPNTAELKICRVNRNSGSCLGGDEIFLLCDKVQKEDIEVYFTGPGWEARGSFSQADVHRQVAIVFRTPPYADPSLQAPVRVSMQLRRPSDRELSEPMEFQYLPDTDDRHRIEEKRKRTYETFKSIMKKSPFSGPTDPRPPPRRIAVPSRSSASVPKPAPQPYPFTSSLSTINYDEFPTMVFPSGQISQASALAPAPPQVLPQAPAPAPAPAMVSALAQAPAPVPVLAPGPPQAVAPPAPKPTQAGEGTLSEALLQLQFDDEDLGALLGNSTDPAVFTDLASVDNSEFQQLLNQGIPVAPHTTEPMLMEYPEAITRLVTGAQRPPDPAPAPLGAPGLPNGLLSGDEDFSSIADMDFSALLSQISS

binding result [1]	binding result [2]	binding result [3]	Binder
no binding	no binding		HA-tagged PRMT2-N (first 95 amino acids of PRMT2) (enzyme, Expressed by transfection in 293 cells; not shown: HA tag at the C-terminus) MATSGDCPRSESQGEEPAECSEAGLLQEGVQPEEFVAIADYAATDETQLSFLRGEKILILRQTTADWWWGERAGCCGYIPANHVGKHVDEYDPED
no binding		binds	HA-tagged PRMT2-A (alternative splice variant, first 218 amino acids of PRMT2) (enzyme, Expressed by transfection in 293 cells; not shown: HA tag at the C-terminus) MATSGDCPRSESQGEEPAECSEAGLLQEGVQPEEFVAIADYAATDETQLSFLRGEKILILRQTTADWWWGERAGCCGYIPANHVGKHVDEYDPEDTWQDEEYFGSYGTLKLHLEMLADQPRTTKYHSVILQNKESLTDKVILDVGCGTGIISLFCAHYARPRAVYAVEASEMAQHTGQLVLQNGFADIITVYQQKVEDVVLPEKVDVLVSEWMGTCLL
